Results published in the Immune Epitope Database (IEDB).

How the values were obtained:
Test in all cases: IEDB peptide-MHC binding, purified MHC/competitive/radioactivity; ≥ and ≤ were set here for values at or beyond the usual limits of such assays
HLA-A*68:02 = target: HLA-A*68:02
HLA-A*02:03 = target: HLA-A*02:03
HLA-A*02:06 = target: HLA-A*02:06
HLA-A*02:02 = target: HLA-A*02:02
HLA-A*02:01 = target: HLA-A*02:01
[1] = source organism: Vaccinia virus WR
[2] = source organism: Hepacivirus hominis
[3] = source organism: Mammarenavirus machupoense
[4] = source organism: Mammarenavirus choriomeningitidis

Row | Sequence | IC50 (HLA-A*68:02; [1]) | IC50 (HLA-A*02:03; [1]) | IC50 (HLA-A*02:06; [1]) | IC50 (HLA-A*02:02; [1]) | IC50 (HLA-A*02:01; [1]) | other results
1 | YQSFLFWFL | 87 nM | 2.5 nM | 40 nM | 0.38 nM | 0.76 nM | 
2 | ALVSDCAST | 771 nM | 31 nM | 311 nM | 701 nM | 115 nM | 
3 | IIYSKAGNIL | 3920 nM | 110 nM | 342 nM | 8.5 nM | 542 nM | 
4 | MMMNWSPTTA |  |  |  |  |  | IC50 (HLA-A*68:02; [2]): 1140 nM; IC50 (HLA-A*02:03; [2]): 6.1 nM; IC50 (HLA-A*02:06; [2]): 849 nM; IC50 (HLA-A*02:02; [2]): 14 nM; IC50 (HLA-A*02:01; [2]): 34 nM
5 | SIDHCSSFIV | 732 nM | 772 nM | 30 nM | 172 nM | 23 nM | 
6 | IVYGRSNAIL | 642 nM | 33 nM | 424 nM | 92 nM | 724 nM | 
7 | YLLFNHFSV | 39 nM | 1.6 nM | 0.73 nM | 1.2 nM | 0.27 nM | 
8 | IVDSMIIGHI | 53 nM | 208 nM | 561 nM | 507 nM | 1060 nM | 
9 | VVISVIFYFI | 583 nM | 755 nM | 542 nM | 239 nM | 616 nM | 
10 | IASILSLETV | 200 nM | 93 nM | 47 nM | 234 nM | 424 nM | 
11 | MMNERDVSV | 566 nM | 0.27 nM | 64 nM | 0.44 nM | 1.1 nM | 
12 | TIDKSSPLYI | 1550 nM | 12 nM | 1820 nM | 387 nM | 1900 nM | 
13 | NIFMTLVPV | 2.6 nM | 6.4 nM | 227 nM | 86 nM | 11 nM | 
14 | ATFRDMLLNV | 511 nM | 0.4 nM | 3 nM | 7.1 nM | 8.3 nM | 
15 | IAGGVCYYL | 394 nM | 1680 nM | 1410 nM | 53 nM | 1930 nM | 
16 | FISIYSRPKI | 592 nM | 102 nM | 396 nM | 23 nM | 135 nM | 
17 | IINSVSIILA | 154 nM | 890 nM | 957 nM | 719 nM | 895 nM | 
18 | LMSFTILCLV |  |  |  |  |  | IC50 (HLA-A*68:02; source organism: SARS-CoV1): 40 nM; IC50 (HLA-A*02:03; source organism: SARS-CoV1): 91 nM; IC50 (HLA-A*02:06; source organism: SARS-CoV1): 40 nM; IC50 (HLA-A*02:02; source organism: SARS-CoV1): 0.34 nM; IC50 (HLA-A*02:01; source organism: SARS-CoV1): 8.4 nM
19 | RAKRKPAMST | 551 nM | 1380 nM | 1550 nM | 977 nM | 785 nM | 
20 | SIPISELSRL | 422 nM | 61 nM | 78 nM | 252 nM | 2260 nM | 
21 | FIISTLNKI | 1500 nM | 0.42 nM | 5.8 nM | 1.6 nM | 6.1 nM | 
22 | LVIGVAFLAV |  |  |  |  |  | IC50 (HLA-A*68:02; source organism: SARS-CoV1): 62 nM; IC50 (HLA-A*02:03; source organism: SARS-CoV1): 22 nM; IC50 (HLA-A*02:06; source organism: SARS-CoV1): 2.6 nM; IC50 (HLA-A*02:02; source organism: SARS-CoV1): 2710 nM; IC50 (HLA-A*02:01; source organism: SARS-CoV1): 342 nM
23 | LLPLTSLVIT | 1490 nM | 1320 nM | 1610 nM | 999 nM | 1170 nM | 
24 | QLMCQPILLL |  |  |  |  |  | IC50 (HLA-A*68:02; source organism: SARS-CoV1): 2310 nM; IC50 (HLA-A*02:03; source organism: SARS-CoV1): 217 nM; IC50 (HLA-A*02:06; source organism: SARS-CoV1): 325 nM; IC50 (HLA-A*02:02; source organism: SARS-CoV1): 92 nM; IC50 (HLA-A*02:01; source organism: SARS-CoV1): 12 nM
25 | IIFWFSLEI |  |  |  |  |  | IC50 (HLA-A*68:02; source organism: SARS-CoV1): 520 nM; IC50 (HLA-A*02:03; source organism: SARS-CoV1): 87 nM; IC50 (HLA-A*02:06; source organism: SARS-CoV1): 4.6 nM; IC50 (HLA-A*02:02; source organism: SARS-CoV1): 1.8 nM; IC50 (HLA-A*02:01; source organism: SARS-CoV1): 9 nM
26 | GALDVSASV |  |  |  |  |  | IC50 (HLA-A*68:02; source organism: SARS-CoV1): 2.9 nM; IC50 (HLA-A*02:03; source organism: SARS-CoV1): 2.3 nM; IC50 (HLA-A*02:06; source organism: SARS-CoV1): 2.3 nM; IC50 (HLA-A*02:02; source organism: SARS-CoV1): 0.72 nM; IC50 (HLA-A*02:01; source organism: SARS-CoV1): 3.4 nM
27 | TTLLNETAKV | 237 nM | 0.17 nM | 1650 nM | 1640 nM | 2880 nM | 

Row | Sequence | IC50 (HLA-A*68:02; [1]) | IC50 (HLA-A*02:03; [1]) | IC50 (HLA-A*02:06; [1]) | IC50 (HLA-A*02:02; [1]) | IC50 (HLA-A*02:01; [1]) | other results
28 | NVSGVPHSV | 2.8 nM | 24 nM | 278 nM | 825 nM | 592 nM | 
29 | SIVCIVAAV | 0.55 nM | 2.8 nM | 3.5 nM | 3.9 nM | 5.3 nM | 
30 | TLLIKTLSPA | 1210 nM | 1.2 nM | 0.73 nM | 1 nM | 0.49 nM | 
31 | VMCGGSLYV |  |  |  |  |  | IC50 (HLA-A*68:02; source organism: SARS-CoV1): 2910 nM; IC50 (HLA-A*02:03; source organism: SARS-CoV1): 7.5 nM; IC50 (HLA-A*02:06; source organism: SARS-CoV1): 6.8 nM; IC50 (HLA-A*02:02; source organism: SARS-CoV1): 0.61 nM; IC50 (HLA-A*02:01; source organism: SARS-CoV1): 0.39 nM
32 | MLTNAISSRV | 101 nM | 0.11 nM | 224 nM | 53 nM | 208 nM | 
33 | YSMAGNWAKV |  |  |  |  |  | IC50 (HLA-A*68:02; [2]): 28 nM; IC50 (HLA-A*02:03; [2]): 17 nM; IC50 (HLA-A*02:06; [2]): 425 nM; IC50 (HLA-A*02:02; [2]): 75 nM; IC50 (HLA-A*02:01; [2]): 175 nM
34 | TVQEFIFSAL | 7.8 nM | 90 nM | 44 nM | 81 nM | 321 nM | 
35 | RAAIDRQVSV | 54 nM | 41 nM | 212 nM | 626 nM | 554 nM | 
36 | SLCSCICTV |  |  |  |  |  | IC50 (HLA-A*68:02; source organism: SARS-CoV1): 1670 nM; IC50 (HLA-A*02:03; source organism: SARS-CoV1): 4.2 nM; IC50 (HLA-A*02:06; source organism: SARS-CoV1): 5.8 nM; IC50 (HLA-A*02:02; source organism: SARS-CoV1): 4 nM; IC50 (HLA-A*02:01; source organism: SARS-CoV1): 3.2 nM
37 | FITVLTSVDI | 1240 nM | 237 nM | 1270 nM | 1420 nM | 603 nM | 
38 | DQLVFNSISA | 4130 nM | 289 nM | 759 nM | 206 nM | 527 nM | 
39 | VLALYSPPL | 1400 nM | 0.41 nM | 33 nM | 0.22 nM | 0.19 nM | 
40 | FMYTKHSML | 3540 nM | 0.39 nM | 222 nM | 2.4 nM | 20 nM | 
41 | ELKHGLLDSI | 266 nM | 55 nM | 1340 nM | 540 nM | 738 nM | 
42 | DVFRPLFDFV | 180 nM | 2570 nM | 232 nM | 1020 nM | 1650 nM | 
43 | SVIFYFISI | 1.7 nM | 75 nM | 0.17 nM | 155 nM | 79 nM | 
44 | AMPGVLSYV |  |  |  |  |  | IC50 (HLA-A*68:02; [3]): 834 nM; IC50 (HLA-A*02:03; [3]): 7.3 nM; IC50 (HLA-A*02:06; [3]): 22 nM; IC50 (HLA-A*02:02; [3]): 4.2 nM; IC50 (HLA-A*02:01; [3]): 8.4 nM
45 | LISFFGLFDI | 82 nM | 108 nM | 171 nM | 76 nM | 175 nM | 
46 | FTNSQIFNI | 0.23 nM | 7.1 nM | 4.8 nM | 6.9 nM | 9 nM | 
47 | NSLILLECFV |  |  |  |  |  | IC50 (HLA-A*68:02; [4]): 43 nM; IC50 (HLA-A*02:03; [4]): 47 nM; IC50 (HLA-A*02:06; [4]): 4.2 nM; IC50 (HLA-A*02:02; [4]): 1.2 nM; IC50 (HLA-A*02:01; [4]): 7.4 nM
48 | GIYNCCESNI | 3800 nM | 140 nM | 290 nM | 68 nM | 331 nM | 
49 | TIFDIVSKCI | 109 nM | 94 nM | 701 nM | 198 nM | 596 nM | 
50 | YASLTTIGT | 52 nM | 144 nM | 161 nM | 409 nM | 868 nM | 
51 | FVATFRDML | 12 nM | 206 nM | 487 nM | 2350 nM | 2260 nM | 
52 | MQVFFGYFA |  |  |  |  |  | IC50 (HLA-A*68:02; source organism: SARS-CoV1): 12 nM; IC50 (HLA-A*02:03; source organism: SARS-CoV1): 193 nM; IC50 (HLA-A*02:06; source organism: SARS-CoV1): 1 nM; IC50 (HLA-A*02:02; source organism: SARS-CoV1): 10 nM; IC50 (HLA-A*02:01; source organism: SARS-CoV1): 10 nM
53 | YVHEGVSYEV | 14 nM | 71 nM | 9.1 nM | 13 nM | 83 nM | 
